The experiment deals with PP1α_(7-330), His6-tag removed by TEV protease, P62136. Description: SEC. On the technique in general: Size exclusion chromatography separates by hydrodynamic size, large species first.
PP1α_(7-330), His6-tag removed by TEV protease, P62136, sequence (P62136 7-330): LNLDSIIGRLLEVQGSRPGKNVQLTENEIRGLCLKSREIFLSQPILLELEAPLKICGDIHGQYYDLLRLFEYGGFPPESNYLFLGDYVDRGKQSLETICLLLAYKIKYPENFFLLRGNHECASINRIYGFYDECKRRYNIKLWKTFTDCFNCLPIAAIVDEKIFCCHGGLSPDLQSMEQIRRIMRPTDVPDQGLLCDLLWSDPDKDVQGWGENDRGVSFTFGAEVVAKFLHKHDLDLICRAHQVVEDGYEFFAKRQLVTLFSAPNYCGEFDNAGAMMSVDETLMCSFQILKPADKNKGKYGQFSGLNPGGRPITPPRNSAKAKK

B1: I-2_(9-164) C85S (domain or fragment)
chain: PIKGILKNKTSTTSSMVASAEQPRGNVDEELSKKSQKWDEMNILATYHPADKDYGLMKIDEPSTPYHSMMGDDEDASSDTEATEAMAPDILARKLAAAEGLEPKYRIQEQESSGEEDSDLSPEEREKKRQFEMKRKLHYNEGLNIKLARQLISKDL
modifications: not checked
One may read the stoichiometry N as the number of molecules, sites or subunits per partner or assembly. As to B1, the stoichiometry N came to 1.
